Experimental data: paper doi:10.1101/2020.06.22.166033

Target: SARS-CoV-2-RBD-AVI probe (SARS-CoV-2) (UniProt P0DTC2)
Experiment: SPR

## CR3022 Fab
  Kd: 25 nM
